# From publication PMC5942779, “Identification of a peptide inhibitor for the histone methyltransferase WHSC1” (PLoS ONE, 2018)
# Tests used:
# WHSC1 941–1240 = WHSC1 941–1240 (UniProt O96028)
# WHSC1L1 1054–1285 = WHSC1L1 1054–1285 (UniProt O96028)
# Chain of WHSC1L1 1054–1285 (O96028 1054-1285): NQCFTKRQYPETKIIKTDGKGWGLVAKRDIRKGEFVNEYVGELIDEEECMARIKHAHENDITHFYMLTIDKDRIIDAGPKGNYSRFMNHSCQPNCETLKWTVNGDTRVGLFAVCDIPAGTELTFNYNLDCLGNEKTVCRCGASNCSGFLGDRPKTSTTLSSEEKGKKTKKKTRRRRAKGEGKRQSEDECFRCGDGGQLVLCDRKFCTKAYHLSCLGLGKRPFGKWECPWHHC
# Chain of WHSC1 941–1240 (O96028 941-1240): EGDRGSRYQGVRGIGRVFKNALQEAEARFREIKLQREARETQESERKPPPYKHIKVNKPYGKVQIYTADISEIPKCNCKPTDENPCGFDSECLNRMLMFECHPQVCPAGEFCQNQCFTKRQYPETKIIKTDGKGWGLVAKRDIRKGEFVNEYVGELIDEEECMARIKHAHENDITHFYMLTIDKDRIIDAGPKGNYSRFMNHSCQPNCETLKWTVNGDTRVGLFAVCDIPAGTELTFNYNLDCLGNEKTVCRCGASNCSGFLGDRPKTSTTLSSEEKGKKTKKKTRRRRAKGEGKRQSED
binder,measurement,setting,value
Ac-GVARI-NH2 [PTD3],Biochemical IC50: inhibition of 3H-methyl transfer from SAM to the biotinylated H4 peptide by WHSC1 941–1240,WHSC1 941–1240,640 µM
same,Biochemical IC50: inhibition of 3H-methyl transfer from SAM to the biotinylated H4 peptide by WHSC1L1 1054–1285,WHSC1L1 1054–1285,> 1000 µM
